Source: US20140154252A1 (EMERGENT PRODUCT DEVELOPMENT SEATTLE, published 2014)
Values belong to the binder of their own block, whether it stands above or below them.

Tests used:
CD28mIgG [1] = molecular target: T1, CD28mIgG (UniProt P10747 19-152); experiment: Western blot, non-reducing, probed with CD28Ig and goat anti-mouse HRP conjugate
T1 construct: Bought reagent; the construct is not described; also called CD28Ig (Ancell); CD28 fused to mouse antibody; not shown: mouse Ig part of the bought fusion; not described
Description: (§1) Electrophoresis was performed under non-reducing conditions, and without boiling samples prior to loading. After electrophoresis, proteins were transferred to PVDF membranes using a semi-dry electroblotter apparatus (Ellard, Seattle, Wash.) for 1 hour at 100 mAmp. Membranes were blocked in BLOTTO (5% nonfat milk in PBS) overnight with agitation. FIG. 9A: Membranes were incubated with the AbyD02429.2, a Fab directed to the 2H7 antibody, at 5 μg/ml in BLOTTO for one hour, then washed 3 times for 5 minutes each in PBS-0.5% Tween 20. Membranes were then incubated in 6×His-HRP for one hour at a concentration of 0.5 μg/ml. Blots were washed three times for 15 minutes each in PBST. Wet membranes were incubated with ECL solution for 1 minute, followed by exposure to X-omat film for 20 seconds.
(§2) FIG. 9B: Membranes were incubated with CD28Ig (Ancell, Bayport, Minn.) at 10 μg/ml in BLOTTO, then washed three times for 15 minutes each in PBS-0.5% Tween 20. Membranes were then incubated in goat anti-mouse HRP conjugate (CalTag, Burlingame, Calif.) at 1:3000 in BLOTTO. Membranes were washed three times, for 15 minutes each, then incubated in ECL solution for 1 minute, followed by exposure to X-omat film for 20 seconds.

CD20 [2] = molecular target: T2, CD20 (human, UniProt P11836 1-297); experiment: flow cytometry, dilutions of crude COS supernatant on WIL-2S cells (CD20), FITC goat anti-human IgG
T2 construct: whole, on cells; 2H7 is called murine anti-human CD20; also called CD20 presented on WIL-2S cells; CD20 on Ramos, BJAB, SU-DHL-6 and DoHH2 B cells
T2 sequence (looked up): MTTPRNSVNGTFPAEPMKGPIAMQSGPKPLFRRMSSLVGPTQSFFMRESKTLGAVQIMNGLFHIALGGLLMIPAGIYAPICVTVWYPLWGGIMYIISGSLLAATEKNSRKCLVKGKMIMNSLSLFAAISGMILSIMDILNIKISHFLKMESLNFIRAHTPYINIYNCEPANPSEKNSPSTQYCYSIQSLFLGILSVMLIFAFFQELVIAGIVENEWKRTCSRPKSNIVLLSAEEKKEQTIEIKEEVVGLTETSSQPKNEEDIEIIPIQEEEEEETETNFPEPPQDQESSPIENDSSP
Description: Seeded plates containing the proteins were incubated on ice for one hour. Subsequently, the wells were washed once with 200 μl 1% FBS in PBS. Goat anti-human antibody labeled with FITC (Fc Sp) at 1:100 was then added to each well, and the plates were again incubated on ice for one hour. The plates were then washed once with 200 μl 1% FBS in PBS and the cells were re-suspended in 200 μl 1% FBS and analyzed by FACS.

CD20 [3] = molecular target: T2, CD20; experiment: sandwich flow cytometry: 2e12HL on WIL-2S cells (CD20), then CD28mIgG, then FITC anti-mouse
CD20 [4] = molecular target: T2, CD20; experiment: flow cytometry on WIL2-S cells (CD20), purified protein at 5 ug/mL, FITC goat anti-human IgG 1:100
Description: Each of the proteins was tested for binding at 5 μg/ml, and binding detected with FITC goat anti-human IgG at 1:100. Control is FITC goat anti-human IgG alone. See the description for FIG. 2 above for more complete descriptions of the modules of the molecules tested.

CD28mIgG [5] = molecular target: T1, CD28mIgG; experiment: Western blot of non-reduced protein probed with CD28 murine IgG, then goat anti-mouse HRP
Description: as §1, §2

CD20 [6] = molecular target: T2, CD20; experiment: flow cytometry on WIL2S cells (CD20), FITC goat anti-human IgG; no unit printed on the axis (legend: ug/ml)

B2: 2H7-sssIgG P238S/P331S-STD1-2e12 VLVH (bispecific antibody)
chain: QIVLSQSPAILSASPGEKVTMTCRASSSVSYMHWYQQKPGSSPKPWIYAPSNLASGVPARFSGSGSGTSYSLTISRVEAEDAATYYCQQWSFNPPTFGAGTKLELKDGGGSGGGGSGGGGSSQAYLQQSGAESVRPGASVKMSCKASGYTFTSYNMHWVKQTPRQGLEWIGAIYPGNGDTSYNQKFKGKATLTVDKSSSTAYMQLSSLTSEDSAVYFCARVVYYSNSYWYFDVWGTGTTVTVSEPKSSDKTHTSPPSPAPELLGGSSVFLFPPKPKDTLMISRTPEVTCVVVDVSHEDPEVKFNWYVDGVEVHNAKTKPREEQYNSTYRVVSVLTVLHQDWLNGKEYKCKVSNKALPASIEKTISKAKGQPREPQVYTLPPSRDELTKNQVSLTCLVKGFYPSDIAVEWESNGQPENNYKTTPPVLDSDGSFFLYSKLTVDKSRWQQGNVFSCSVMHEALHNHYTQKSLSLSPGKNYGGGGSGGGGSGGGGSGNSDIVLTQSPASLAVSLGQRATISCRASESVEYYVTSLMQWYQQKPGQPPKLLISAASNVESGVPARFSGSGSGTDFSLNIHPVEEDDIAMYFCQQSRKVPWTFGGGTKLEIKRGGGGSGGGGSGGGGSQVQLKESGPGLVAPSQSLSITCTVSGFSLTGYGVNWVRQPPGKGLEWLGMIWGDGSTDYNSALKSRLSITKDNSKSQVFLKMNSLQTDDTARYYCARDGYSNFHYYVMDYWGQGTSVTVSS
notes: also called 2H7-IgG-STD1-2E12 LH; 2H7-2E12 LH
- binding result (CD20 [2]): binds

B4: 2H7-sssIgG P238S/P331S-STD1-2e12 VHVL (bispecific antibody)
chain: QIVLSQSPAILSASPGEKVTMTCRASSSVSYMHWYQQKPGSSPKPWIYAPSNLASGVPARFSGSGSGTSYSLTISRVEAEDAATYYCQQWSFNPPTFGAGTKLELKDGGGSGGGGSGGGGSSQAYLQQSGAESVRPGASVKMSCKASGYTFTSYNMHWVKQTPRQGLEWIGAIYPGNGDTSYNQKFKGKATLTVDKSSSTAYMQLSSLTSEDSAVYFCARVVYYSNSYWYFDVWGTGTTVTVSEPKSSDKTHTSPPSPAPELLGGSSVFLFPPKPKDTLMISRTPEVTCVVVDVSHEDPEVKFNWYVDGVEVHNAKTKPREEQYNSTYRVVSVLTVLHQDWLNGKEYKCKVSNKALPASIEKTISKAKGQPREPQVYTLPPSRDELTKNQVSLTCLVKGFYPSDIAVEWESNGQPENNYKTTPPVLDSDGSFFLYSKLTVDKSRWQQGNVFSCSVMHEALHNHYTQKSLSLSPGKNYGGGGSGGGGSGGGGSGNSQVQLKESGPGLVAPSQSLSITCTVSGFSLTGYGVNWVRQPPGKGLEWLGMIWGDGSTDYNSALKSRLSITKDNSKSQVFLKMNSLQTDDTARYYCARDGYSNFHYYVMDYWGQGTSVTVSSGGGGSGGGGSGGGGSGGGGSDIVLTQSPASLAVSLGQRATISCRASESVEYYVTSLMQWYQQKPGQPPKLLISAASNVESGVPARFSGSGSGTDFSLNIHPVEEDDIAMYFCQQSRKVPWTFGGGTKLEIKR
notes: Assembled from modules as m10; also called 2H7-IgG-STD1-2E12 HL; 2H7-2E12 HL
- binding result (CD20 [4]): binds

B5: TRU-015 (Fc fusion, not shown: a dimerising Fc or GST)
chain: QIVLSQSPAILSASPGEKVTMTCRASSSVSYMHWYQQKPGSSPKPWIYAPSNLASGVPARFSGSGSGTSYSLTISRVEAEDAATYYCQQWSFNPPTFGAGTKLELKDGGGSGGGGSGGGGSSQAYLQQSGAESVRPGASVKMSCKASGYTFTSYNMHWVKQTPRQGLEWIGAIYPGNGDTSYNQKFKGKATLTVDKSSSTAYMQLSSLTSEDSAVYFCARVVYYSNSYWYFDVWGTGTTVTVS
notes: SMIP: scFv-hinge-CH2-CH3; also called 2H7 SMIP; CD20 SMIP (TRU015)
- binding result (CD28mIgG [5]): no binding

B6: 2H7-sss-hIgG-STD1-G19-4 LH (bispecific antibody)
chain (part 1 of 2): QIVLSQSPAILSASPGEKVTMTCRASSSVSYMHWYQQKPGSSPKPWIYAPSNLASGVPARFSGSGSGTSYSLTISRVEAEDAATYYCQQWSFNPPTFGAGTKLELKDGGGSGGGGSGGGGSSQAYLQQSGAESVRPGASVKMSCKASGYTFTSYNMHWVKQTPRQGLEWIGAIYPGNGDTSYNQKFKGKATLTVDKSSSTAYMQLSSLTSEDSAVYFCARVVYYSNSYWYFDVWGTGTTVTVSEPKSSDKTHTSPPSP
chain (part 2 of 2): NYGGGGSGGGGSGGGGSGNSDIQMTQTTSSLSASLGDRVTISCRASQDIRNYLNWYQQKPDGTVKLLIYYTSRLHSGVPSRFSGSGSGTDYSLTIANLQPEDIATYFCQQGNTLPWTFGGGTKLVTKRGGGGSGGGGSGGGGSASEVQLQQSGPELVKPGASMKISCKASGYSFTGYIVNWLKQSHGKNLEWIGLINPYKGLTTYNQKFKGKATLTVDKSSSTAYMELLSLTSEDSAVYYCARSGYYGDSDWYFDVWGAGTTVTVSS
notes: Assembled from modules; also called 2H7sssIgG1-STD1-G19-4 LH; CD20-hIgG-CD3 multispecific molecule (LH); not shown: human IgG1 CH2-CH3
- binding result (CD20 [6]): binds

The remaining lines, values ahead:

- binding result (CD28mIgG [1]): no binding (tested: CD28Ig at 10 µg/ml)
B1: SMIP-sized cleaved fragment (2H7-sss-hIgG) of 2H7-sss-hIgG-H6-2e12 (other)
chain: QIVLSQSPAILSASPGEKVTMTCRASSSVSYMHWYQQKPGSSPKPWIYAPSNLASGVPARFSGSGSGTSYSLTISRVEAEDAATYYCQQWSFNPPTFGAGTKLELKDGGGSGGGGSGGGGSSQAYLQQSGAESVRPGASVKMSCKASGYTFTSYNMHWVKQTPRQGLEWIGAIYPGNGDTSYNQKFKGKATLTVDKSSSTAYMQLSSLTSEDSAVYFCARVVYYSNSYWYFDVWGTGTTVTVSEPKSSDKTHTSPPSPAPELLGGSSVFLFPPKPKDTLMISRTPEVTCVVVDVSHEDPEVKFNWYVDGVEVHNAKTKPREEQYNSTYRVVSVLTVLHQDWLNGKEYKCKVSNKALPASIEKTISKAKGQPREPQVYTLPPSRDELTKNQVSLTCLVKGFYPSDIAVEWESNGQPENNYKTTPPVLDSDGSFFLYSKLTVDKSRWQQGNVFSCSVMHEALHNHYTQKSLSLSPGK
notes: Cleavage product seen on gels and blots, about 52 kDa; also called cleaved forms of the multivalent constructs; peptide fragment containing (2H7-sss-hIgG), and missing the CD28 scFv BD2 portion; not shown: C-terminal end: cleaved at or near the H6 linker, site not determined

- binding result (CD20 [3]): no binding (tested: 5 ug/ml)
B3: 2e12 VHVL SMIP (Fc fusion)
chain: QVQLKESGPGLVAPSQSLSITCTVSGFSLTGYGVNWVRQPPGKGLEWLGMIWGDGSTDYNSALKSRLSITKDNSKSQVFLKMNSLQTDDTARYYCARDGYSNFHYYVMDYWGQGTSVTVSSGGGGSGGGGSGGGGSGGGGSDIVLTQSPASLAVSLGQRATISCRASESVEYYVTSLMQWYQQKPGQPPKLLISAASNVESGVPARFSGSGSGTDFSLNIHPVEEDDIAMYFCQQSRKVPWTFGGGTKLEIKR
notes: SMIP: scFv-hinge-CH2-CH3; also called 2E12IgG-VHVL SMIP; 2e12 HL SMIP; not shown: hinge-CH2-CH3 of human IgG
